Assay results: patent CN115433279A (SUZHOU DIMA BIOTECHNOLOGY CO LTD, dated 2022)

Key:
CD123全长蛋白 (细胞膜上CD123) = target: T1, CD123全长蛋白 (细胞膜上CD123) (UniProt P26951 19-378, limits assumed); assay: flow cytometry on Raji cells, antibody titration
T1 construct: whole, on cells; also called 天然细胞表面CD123蛋白

CD123 FC融合标签蛋白 = CD123 FC融合标签蛋白 (UniProt P26951); assay: indirect ELISA, CD123 protein coated at 1 μg/ml, B cell clone supernatant

T1 sequence (P26951 19-378 limits assumed): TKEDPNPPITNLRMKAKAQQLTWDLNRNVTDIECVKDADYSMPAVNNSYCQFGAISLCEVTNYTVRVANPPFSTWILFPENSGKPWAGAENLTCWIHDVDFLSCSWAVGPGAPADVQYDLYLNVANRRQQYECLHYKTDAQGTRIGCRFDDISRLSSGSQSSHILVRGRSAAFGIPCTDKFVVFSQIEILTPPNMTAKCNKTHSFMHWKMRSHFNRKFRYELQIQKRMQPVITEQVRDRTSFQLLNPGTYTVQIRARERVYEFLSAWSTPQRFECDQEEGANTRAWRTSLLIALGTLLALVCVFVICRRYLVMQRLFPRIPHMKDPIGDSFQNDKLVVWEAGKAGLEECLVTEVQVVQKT

Row | binding result (CD123全长蛋白 (细胞膜上CD123)) | OD450 (CD123 FC融合标签蛋白) | Binder
1 | binds | 2.1 OD450 | 命名为1E4的兔重组单克隆抗体 (antibody, V domains shown, In the later assays it was recombinant antibody purified from 293 cells) VH: QSLEESGGRLVTPGTPLTLTCTASGFSLSSYYMSWVRQAPGKGLEYIGIIYDSGSTWYANWAKGRFTISKTSTAVYLEITSPTTEDTATYFCARTGSIYYIWLDLWGQGTLVTVSS VL: AAVLTQTPSPVSAAVGGSVTISCQSSQTIYKNNDLAWYQQKPGQPPKLLIYEASKLASGVPSRFSGSGSGTQFTLTISGVQCDDAATYYCLGGYDDDDDNTFGGGTEVVVK
2 |  | 1.53 OD450 | 命名为1E6的兔重组单克隆抗体 (antibody, V domains shown) VH: QSVEESGGRLVTPGTPLTLACTVSGFDISSYSMSWVRQAPGKGLEWIGSGIIGGSTYYASWAKGRFTISKTSTTVDLKITSPTTEDTATYFCARFAGTSSTDYYDLWGQGTLVTVSS VL: TQTPSSVEAAVGGTVTIKCQASQSIDSYLAWYQQKPGQPPKLLIYDTSTLASGVSSRFKGSGSGTQFTLTISDLECADAATYYCQNYWIITTFGFGGGTEVVVK
3 |  | 1.77 OD450 | 命名为5D3的兔重组单克隆抗体 (antibody, V domains shown) VH: GGAEGGLVKPGGSLELCCKASGFSLSNLRVNWVRQAPGKGLEWIGCIISDSSGTTSYASWVNGRFTLSRDIDQNTGCLQLNSLTVADTAMYYCASRVNITSYDLSLWGQGTLVTVSS VL: AAVLTQTPSPVSAAVGGTVSISCQSSKSVYNNKWLSWFQQKPGQPPKLLIYSASTLASGVPSRFSGSGSGTDFTLTISDVQCDDAATYYCAGGYSGSSDTYSFGGGTEVVVK
4 | binds | 1.87 OD450 | 命名为1E5的兔重组单克隆抗体 (antibody, V domains shown) VH: QSVKESAGGLFKPTDTLTLTCTASGFTISSNAITWVRQAPGNGLEWIGGIDSSGSAYYASWAKSRSTITRNTNLNTVTLKMTSLTAADTATYFCAGGSNIWGPGTLVTVSS VL: DIVMTQTPSSVSAAVGGTVTIKCQASESIYSYLSWYQQKPGQPPKLLIYLASTLDSGVPSRFKGSGSGTQFTLTISDLECADAATYYCQSSYFSSGSSYGNTFGGGTEVVVK
